# In article PMC2653023, “Improving the functional expression of a Bacillus licheniformis laccase by random and site-directed mutagenesis” (BMC Biotechnology, 2009):
# Substrate: CCn1c(=NN=c2sc3cc(S(=O)(=O)O)ccc3n2CC)sc2cc(S(=O)(=O)O)ccc21
# Test: purified protein
# Format: biochemical, Bacillus licheniformis
# Conditions: 0.1 M citrate/phosphate buffer, pH 4.0, room temperature, 5-500 μM ABTS, co-substrate O2, free enzyme
row,Protein,Km [µM]
1,"CotA (Bacillus licheniformis DSM 13 = ATCC 14580) (protein, untagged full-length CotA in pET22b+ (NdeI/EcoRI, own stop codon), recombinant from E. coli BL21(DE3), heat step and Q-Sepharose, ~65 kDa; primer-encoded N-terminus MKLEKFVDR, C-terminus EVTDVRHQ) MKLEKFVDRLPIPQVLQPQSKSKEMTYYEVTMKEFQQQLHRDLPPTRLFGYNGVYPGPTFEVQKHEKVAVKWLNKLPDRHFLPVDHTLHDDGHHEHEVKTVVHLHGGCTPADSDGYPEAWYTKDFHAKGPFFEREVYEYPNEQDATALWYHDHAMAITRLNVYAGLVGLYFIRDREERSLNLPKGEYEIPLLIQDKSFHEDGSLFYPRQPDNPSPDLPDPSIVPAFCGDTILVNGKVWPFAELEPRKYRFRILNASNTRIFELYFDHDITCHQIGTDGGLLQHPVKVNELVIAPAERCDIIVDFSRAEGKTVTLKKRIGCGGQDADPDTDADIMQFRISKPLKQKDTSSLPRILRKRPFYRRHKINALRNLSLGAAVDQYGRPVLLLNNTKWHEPVTETPALGSTEIWSIINAGRAIHPIHLHLVQFMILDHRPFDIERYQENGELVFTGPAVPPAPNEKGLKDTVKVPPGSVTRIIATFAPYSGRYVWHCHILEHEDYDMMRPLEVTDVRHQ",6.5 ± 0.2
2,"CotA (Bacillus licheniformis DSM 13 = ATCC 14580; D500G/K316N) (protein, untagged full-length CotA in pET22b+ (NdeI/EcoRI, own stop codon), recombinant from E. coli BL21(DE3), heat step and Q-Sepharose, ~65 kDa; primer-encoded N-terminus MKLEKFVDR, C-terminus EVTDVRHQ) MKLEKFVDRLPIPQVLQPQSKSKEMTYYEVTMKEFQQQLHRDLPPTRLFGYNGVYPGPTFEVQKHEKVAVKWLNKLPDRHFLPVDHTLHDDGHHEHEVKTVVHLHGGCTPADSDGYPEAWYTKDFHAKGPFFEREVYEYPNEQDATALWYHDHAMAITRLNVYAGLVGLYFIRDREERSLNLPKGEYEIPLLIQDKSFHEDGSLFYPRQPDNPSPDLPDPSIVPAFCGDTILVNGKVWPFAELEPRKYRFRILNASNTRIFELYFDHDITCHQIGTDGGLLQHPVKVNELVIAPAERCDIIVDFSRAEGKTVTLKNRIGCGGQDADPDTDADIMQFRISKPLKQKDTSSLPRILRKRPFYRRHKINALRNLSLGAAVDQYGRPVLLLNNTKWHEPVTETPALGSTEIWSIINAGRAIHPIHLHLVQFMILDHRPFDIERYQENGELVFTGPAVPPAPNEKGLKDTVKVPPGSVTRIIATFAPYSGRYVWHCHILEHEDYGMMRPLEVTDVRHQ",8.4 ± 0.2
3,"CotA (Bacillus licheniformis DSM 13 = ATCC 14580; K316N) (protein, untagged full-length CotA in pET22b+ (NdeI/EcoRI, own stop codon), recombinant from E. coli BL21(DE3), heat step and Q-Sepharose, ~65 kDa; primer-encoded N-terminus MKLEKFVDR, C-terminus EVTDVRHQ) MKLEKFVDRLPIPQVLQPQSKSKEMTYYEVTMKEFQQQLHRDLPPTRLFGYNGVYPGPTFEVQKHEKVAVKWLNKLPDRHFLPVDHTLHDDGHHEHEVKTVVHLHGGCTPADSDGYPEAWYTKDFHAKGPFFEREVYEYPNEQDATALWYHDHAMAITRLNVYAGLVGLYFIRDREERSLNLPKGEYEIPLLIQDKSFHEDGSLFYPRQPDNPSPDLPDPSIVPAFCGDTILVNGKVWPFAELEPRKYRFRILNASNTRIFELYFDHDITCHQIGTDGGLLQHPVKVNELVIAPAERCDIIVDFSRAEGKTVTLKNRIGCGGQDADPDTDADIMQFRISKPLKQKDTSSLPRILRKRPFYRRHKINALRNLSLGAAVDQYGRPVLLLNNTKWHEPVTETPALGSTEIWSIINAGRAIHPIHLHLVQFMILDHRPFDIERYQENGELVFTGPAVPPAPNEKGLKDTVKVPPGSVTRIIATFAPYSGRYVWHCHILEHEDYDMMRPLEVTDVRHQ",10.0 ± 0.3
4,"CotA (Bacillus licheniformis DSM 13 = ATCC 14580; D500G) (protein, untagged full-length CotA in pET22b+ (NdeI/EcoRI, own stop codon), recombinant from E. coli BL21(DE3), heat step and Q-Sepharose, ~65 kDa; primer-encoded N-terminus MKLEKFVDR, C-terminus EVTDVRHQ) MKLEKFVDRLPIPQVLQPQSKSKEMTYYEVTMKEFQQQLHRDLPPTRLFGYNGVYPGPTFEVQKHEKVAVKWLNKLPDRHFLPVDHTLHDDGHHEHEVKTVVHLHGGCTPADSDGYPEAWYTKDFHAKGPFFEREVYEYPNEQDATALWYHDHAMAITRLNVYAGLVGLYFIRDREERSLNLPKGEYEIPLLIQDKSFHEDGSLFYPRQPDNPSPDLPDPSIVPAFCGDTILVNGKVWPFAELEPRKYRFRILNASNTRIFELYFDHDITCHQIGTDGGLLQHPVKVNELVIAPAERCDIIVDFSRAEGKTVTLKKRIGCGGQDADPDTDADIMQFRISKPLKQKDTSSLPRILRKRPFYRRHKINALRNLSLGAAVDQYGRPVLLLNNTKWHEPVTETPALGSTEIWSIINAGRAIHPIHLHLVQFMILDHRPFDIERYQENGELVFTGPAVPPAPNEKGLKDTVKVPPGSVTRIIATFAPYSGRYVWHCHILEHEDYGMMRPLEVTDVRHQ",9.5 ± 0.2
